± gives the uncertainty stated by the source.
Assay: self-splicing fitness, log relative to wild type (ln ratio); higher = more splicing; Tetrahymena group I intron in knt gene, E. coli kanamycin selection, DiMSum; sequences stand for … in CUCUCU…GGAGGGAAAAGUUAUCAGGCAUGCACCUGGUAGCUAGUCUUUAAACCAAUAGAUUGCAUCGGUUUAAAAGGCAAGACCGUCAAAUUGCGGGAAAGGGGUCAACAGCCGUUCAGUACCAAGUCUCAGGGGAAACUUUGAGAUGGCCUUGCAAAGGGUAUGGUAAUAAGCUGACGGACAUGGUCCUAACCACGCAGCCAAGUCCUAAGUCAACAGAUCUUCUGUUGAUAUGGAUGCAGUUCACAGACUAAAUGUCGGUCGGGGAAGAUGUAUUCUUCUCAUAAGAUAUAGUCGGACCUCUCCUUAAUGGGAGCUAGCGGAUGAAGUGAUGCAACACUGGAGCCGCUGGGAACUAAUUUGUAUGCGAAAGUAUAUUGAUUAGUUUUGGAGUACUCGUGGUCG
Summary of the method: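 A randomised library covering all eight P1ex-region intron nucleotides was built with the intron in the knt kanamycin-resistance gene on pET-22b(+) and held in E. coli BL21(DE3). Cells were grown overnight at 37°C or 30°C on LB agar, with or without 25 μg/mL kanamycin, plus 100 μg/mL carbenicillin, 50 μM IPTG and 0.2% rhamnose, and pooled colonies were amplicon-sequenced on an Illumina HiSeq 2500. DiMSum fitness is the error-weighted combination of wild-type-normalised replicate fold changes, kanamycin versus none.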

Sequence | self-splicing fitness (ln) (30 °C) | self-splicing fitness (ln) (37 °C)
GAUAAGCAAUAUUACGUCUG | -2.51 ± 0.24 | -1.57 ± 0.25
GAUAAGCAAUAUUACGUGGA | -3.96 ± 0.38 | -2.55 ± 0.17
GAUCAGCAAUAUUACGACUA | -0.353 ± 0.4 | -0.914 ± 0.2
GAUCAGCAAUAUUACGAUAG | -0.506 ± 0.067 | 0.475 ± 0.093
GAUCAGCAAUAUUACGAUGA | -0.0415 ± 0.095 | 0.313 ± 0.12
GAUCAGCAAUAUUACGAUUU | -0.286 ± 0.085 | 0.0945 ± 0.1
GAUCAGCAAUAUUACGCAUA | -0.521 ± 0.082 | -0.0106 ± 0.084
GAUCAGCAAUAUUACGCCGU | -0.933 ± 0.098 | -0.477 ± 0.12
GAUCAGCAAUAUUACGCGAA | -1.49 ± 0.086 | -0.586 ± 0.09
GAUCAGCAAUAUUACGCGUG | -0.471 ± 0.048 | 0.0677 ± 0.066
GAUCAGCAAUAUUACGCGUU | -2.22 ± 0.1 | -1.21 ± 0.12
GAUCAGCAAUAUUACGGACG | -0.737 ± 0.13 | -0.212 ± 0.18
GAUCAGCAAUAUUACGGAUC | -2.99 ± 0.2 | -2.49 ± 0.36
GAUCAGCAAUAUUACGGCGU | -0.292 ± 0.086 | 0.2 ± 0.1
GAUCAGCAAUAUUACGGCUU | -0.164 ± 0.092 | -0.596 ± 0.1
GAUCAGCAAUAUUACGGGCC | -0.0569 ± 0.16 | -0.311 ± 0.18
GAUCAGCAAUAUUACGGGUG | -0.356 ± 0.081 | -0.245 ± 0.094
GAUCAGCAAUAUUACGGUCU | -3.56 ± 0.21 | -1.9 ± 0.2
GAUCAGCAAUAUUACGUAAG | -1.58 ± 0.097 | -1.13 ± 0.12
GAUCAGCAAUAUUACGUCUC | -0.796 ± 0.1 | 0.0417 ± 0.13
GAUCAGCAAUAUUACGUGAA | -0.745 ± 0.062 | -0.0764 ± 0.076
GAUCAGCAAUAUUACGUGCG | -1.16 ± 0.086 | -0.336 ± 0.093
GAUCAGCAAUAUUACGUGUG | -0.908 ± 0.044 | -0.101 ± 0.06
GAUCAGCAAUAUUACGUGUU | -1.75 ± 0.06 | -1.48 ± 0.09
GAUCAGCAAUAUUACGUUAC | -2.16 ± 0.097 | -1.19 ± 0.11
GAUCAGCAAUAUUACGUUUC | -2.26 ± 0.12 | -0.791 ± 0.1

Sequence | self-splicing fitness (ln) (30 °C) | self-splicing fitness (ln) (37 °C)
GAUGAGCAAUAUUACGAAAC | -3.2 ± 0.26 | -2.43 ± 0.24
GAUGAGCAAUAUUACGAACA | -3.07 ± 0.47 | -1.54 ± 0.24
GAUGAGCAAUAUUACGACAG | -2.31 ± 0.47 | –
GAUGAGCAAUAUUACGAGUU | -2.18 ± 0.22 | -1.47 ± 0.24
GAUGAGCAAUAUUACGAUAC | -3.7 ± 0.38 | -0.654 ± 0.2
GAUGAGCAAUAUUACGAUCU | – | -1.86 ± 0.29
GAUGAGCAAUAUUACGCGAU | -3.05 ± 0.34 | -1.57 ± 0.21
GAUGAGCAAUAUUACGCGCG | -1.68 ± 0.23 | -0.518 ± 0.17
GAUGAGCAAUAUUACGCGGG | -3.55 ± 0.42 | -3.59 ± 0.47
GAUGAGCAAUAUUACGCUCC | -3 ± 0.3 | –
GAUGAGCAAUAUUACGCUUA | -2.21 ± 0.28 | -2.33 ± 0.25
GAUGAGCAAUAUUACGGAAA | – | -2.2 ± 0.31
GAUGAGCAAUAUUACGGAAC | – | 0.0424 ± 0.44
GAUGAGCAAUAUUACGGUAG | -2.01 ± 0.14 | -2.2 ± 0.21
GAUGAGCAAUAUUACGGUUC | -4.06 ± 0.33 | -2.32 ± 0.35
GAUGAGCAAUAUUACGGUUU | -2.06 ± 0.097 | -1.04 ± 0.13
GAUGAGCAAUAUUACGUGUG | -2.57 ± 0.14 | -1.45 ± 0.12
GAUGAGCAAUAUUACGUUGA | -3.32 ± 0.43 | -1.5 ± 0.2
GAUUAGCAAUAUUACGAAAC | -2.38 ± 0.16 | -1.61 ± 0.17
GAUUAGCAAUAUUACGAACA | -0.848 ± 0.21 | 0.129 ± 0.17
GAUUAGCAAUAUUACGACAC | -0.38 ± 0.17 | -1.07 ± 0.17
GAUUAGCAAUAUUACGACAU | -0.469 ± 0.014 | -0.0848 ± 0.033
GAUUAGCAAUAUUACGACUG | -0.181 ± 0.12 | -0.313 ± 0.14
GAUUAGCAAUAUUACGACUU | 0.263 ± 0.12 | -0.24 ± 0.12
GAUUAGCAAUAUUACGCAUC | -2.32 ± 0.25 | –
GAUUAGCAAUAUUACGCCAG | -2.17 ± 0.32 | -0.806 ± 0.34

Sequence | self-splicing fitness (ln) (30 °C) | self-splicing fitness (ln) (37 °C)
GAUUAGCAAUAUUACGCGCA | -0.548 ± 0.12 | 0.433 ± 0.11
GAUUAGCAAUAUUACGCGCC | -1.37 ± 0.38 | -1.2 ± 0.34
GAUUAGCAAUAUUACGCGUU | -2.52 ± 0.31 | -1.8 ± 0.34
GAUUAGCAAUAUUACGCUGC | -3.07 ± 0.24 | -2.25 ± 0.35
GAUUAGCAAUAUUACGCUUC | -3.55 ± 0.34 | -1.88 ± 0.29
GAUUAGCAAUAUUACGGACA | -1.06 ± 0.13 | 0.179 ± 0.12
GAUUAGCAAUAUUACGGAGG | -2.45 ± 0.18 | -1.81 ± 0.17
GAUUAGCAAUAUUACGGAUG | -2.07 ± 0.16 | -0.375 ± 0.15
GAUUAGCAAUAUUACGGCUG | -0.996 ± 0.067 | -0.513 ± 0.093
GAUUAGCAAUAUUACGGCUU | -0.0112 ± 0.094 | -0.0247 ± 0.11
GAUUAGCAAUAUUACGGGCA | -1.13 ± 0.13 | -0.685 ± 0.12
GAUUAGCAAUAUUACGGGUG | -1.52 ± 0.097 | -0.58 ± 0.12
GAUUAGCAAUAUUACGGGUU | -2.59 ± 0.16 | -1.14 ± 0.15
GAUUAGCAAUAUUACGUACA | -1.89 ± 0.24 | -0.352 ± 0.15
GAUUAGCAAUAUUACGUAGG | -3.05 ± 0.16 | -1.48 ± 0.15
GAUUAGCAAUAUUACGUCAC | -2.91 ± 0.28 | -2.2 ± 0.37
GAUUAGCAAUAUUACGUCCC | -0.907 ± 0.17 | -0.221 ± 0.17
GAUUAGCAAUAUUACGUCGG | -2.66 ± 0.24 | -3.05 ± 0.29
GAUUAGCAAUAUUACGUUCG | -1.94 ± 0.16 | -1.44 ± 0.13
GCAAAGCAAUAUUACGAAAU | -2.4 ± 0.12 | -1.36 ± 0.11
GCAAAGCAAUAUUACGAACA | -1.89 ± 0.14 | -1.73 ± 0.12
GCAAAGCAAUAUUACGACAU | -0.736 ± 0.012 | -0.158 ± 0.032
GCAAAGCAAUAUUACGACCC | -1.11 ± 0.073 | -0.0707 ± 0.1
GCAAAGCAAUAUUACGACGU | 0.0721 ± 0.072 | 0.116 ± 0.096
GCAAAGCAAUAUUACGACUG | -1.3 ± 0.13 | -0.673 ± 0.15
GCAAAGCAAUAUUACGAGUC | -1.41 ± 0.14 | -2.6 ± 0.19

— the supplement of paper PMC7877785
